According to IntAct's records for PubMed 31515488:

B1: Notch homolog 2 N-terminal-like protein A (Homo sapiens), Q7Z3S9 (parent)
chain: MCVTYHNGTGYCKCPEGFLGEYCQHRDPCEKNRCQNGGTCVAQAMLGKATCRCASGFTGEDCQYSTSHPCFVSRPCLNGGTCHMLSRDTYECTCQVGFTGKECQWTDACLSHPCANGSTCTTVANQFSCKCLTGFTGQKCETDVNECDIPGHCQHGGTCLNLPGSYQCQCLQGFTGQYCDSLYVPCAPSPCVNGGTCRQTGDFTFECNCLPETVRRGTELWERDREVWNGKEHDEN
partner: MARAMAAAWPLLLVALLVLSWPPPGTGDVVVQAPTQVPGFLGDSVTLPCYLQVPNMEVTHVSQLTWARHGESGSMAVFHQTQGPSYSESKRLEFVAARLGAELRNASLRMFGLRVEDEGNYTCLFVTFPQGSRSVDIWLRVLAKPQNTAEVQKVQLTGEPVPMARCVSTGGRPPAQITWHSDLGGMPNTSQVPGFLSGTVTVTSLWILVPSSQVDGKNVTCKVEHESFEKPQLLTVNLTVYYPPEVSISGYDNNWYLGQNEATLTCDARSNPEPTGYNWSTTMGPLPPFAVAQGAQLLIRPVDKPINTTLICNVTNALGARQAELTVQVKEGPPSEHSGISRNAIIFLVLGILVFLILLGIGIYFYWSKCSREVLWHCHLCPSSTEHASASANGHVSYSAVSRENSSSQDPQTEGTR
B2: Alpha-taxilin (Homo sapiens), P40222 (parent)
chain: MKNQDKKNGAAKQSNPKSSPGQPEAGPEGAQERPSQAAPAVEAEGPGSSQAPRKPEGAQARTAQSGALRDVSEELSRQLEDILSTYCVDNNQGGPGEDGAQGEPAEPEDAEKSRTYVARNGEPEPTPVVNGEKEPSKGDPNTEEIRQSDEVGDRDHRRPQEKKKAKGLGKEITLLMQTLNTLSTPEEKLAALCKKYAELLEEHRNSQKQMKLLQKKQSQLVQEKDHLRGEHSKAVLARSKLESLCRELQRHNRSLKEEGVQRAREEEEKRKEVTSHFQVTLNDIQLQMEQHNERNSKLRQENMELAERLKKLIEQYELREEHIDKVFKHKDLQQQLVDAKLQQAQEMLKEAEERHQREKDFLLKEAVESQRMCELMKQQETHLKQQLALYTEKFEEFQNTLSKSSEVFTTFKQEMEKMTKKIKKLEKETTMYRSRWESSNKALLEMAEEKTVRDKELEGLQVKIQRLEKLCRALQTERNDLNKRVQDLSAGGQGSLTDSGPERRPEGPGAQAPSSPRVTEAPCYPGAPSTEASGQTGPQEPTSARA
partner: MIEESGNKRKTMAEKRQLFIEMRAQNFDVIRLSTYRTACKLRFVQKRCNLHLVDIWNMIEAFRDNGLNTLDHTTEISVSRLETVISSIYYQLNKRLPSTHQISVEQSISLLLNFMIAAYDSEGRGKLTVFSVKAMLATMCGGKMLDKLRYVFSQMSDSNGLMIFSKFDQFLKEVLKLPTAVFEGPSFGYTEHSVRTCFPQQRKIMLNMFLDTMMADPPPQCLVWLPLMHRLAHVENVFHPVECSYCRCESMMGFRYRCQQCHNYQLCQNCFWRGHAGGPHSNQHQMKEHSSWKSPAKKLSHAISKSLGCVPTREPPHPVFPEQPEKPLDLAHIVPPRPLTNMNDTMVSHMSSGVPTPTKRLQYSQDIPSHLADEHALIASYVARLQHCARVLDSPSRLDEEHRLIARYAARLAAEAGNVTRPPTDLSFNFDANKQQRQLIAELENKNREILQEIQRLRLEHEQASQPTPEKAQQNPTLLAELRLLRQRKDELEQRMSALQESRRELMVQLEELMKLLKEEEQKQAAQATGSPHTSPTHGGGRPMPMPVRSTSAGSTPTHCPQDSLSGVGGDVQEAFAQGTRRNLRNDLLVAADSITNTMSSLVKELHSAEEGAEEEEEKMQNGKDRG
B3: Nucleoplasmin-3 (Homo sapiens), O75607 (parent)
chain: MAAGTAAALAFLSQESRTRAGGVGGLRVPAPVTMDSFFFGCELSGHTRSFTFKVEEEDDAEHVLALTMLCLTEGAKDECNVVEVVARNHDHQEIAVPVANLKLSCQPMLSLDDFQLQPPVTFRLKSGSGPVRITGRHQIVTMSNDVSEEESEEEEEDSDEEEVELCPILPAKKQGGRP
partner: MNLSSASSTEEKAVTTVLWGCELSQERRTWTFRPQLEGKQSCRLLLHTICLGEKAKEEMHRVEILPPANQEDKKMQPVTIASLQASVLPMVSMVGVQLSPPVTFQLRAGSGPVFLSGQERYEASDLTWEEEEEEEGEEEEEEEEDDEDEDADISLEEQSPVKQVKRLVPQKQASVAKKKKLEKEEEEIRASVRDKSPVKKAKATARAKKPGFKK
B4: Prolyl 4-hydroxylase subunit alpha-3 (Homo sapiens), Q7Z4N8 (parent)
chain: MGPGARLAALLAVLALGTGDPERAAARGDTFSALTSVARALAPERRLLGLLRRYLRGEEARLRDLTRFYDKVLSLHEDSTTPVANPLLAFTLIKRLQSDWRNVVHSLEASENIRALKDGYEKVEQDLPAFEDLEGAARALMRLQDVYMLNVKGLARGVFQRVTGSAITDLYSPKRLFSLTGDDCFQVGKVAYDMGDYYHAIPWLEEAVSLFRGSYGEWKTEDEASLEDALDHLAFAYFRAGNVSCALSLSREFLLYSPDNKRMARNVLKYERLLAESPNHVVAEAVIQRPNIPHLQTRDTYEGLCQTLGSQPTLYQIPSLYCSYETNSNAYLLLQPIRKEVIHLEPYIALYHDFVSDSEAQKIRELAEPWLQRSVVASGEKQLQVEYRISKSAWLKDTVDPKLVTLNHRIAALTGLDVRPPYAEYLQVVNYGIGGHYEPHFDHATSPSSPLYRMKSGNRVATFMIYLSSVEAGGATAFIYANLSVPVVRNAALFWWNLHRSGEGDSDTLHAGCPVLVGDKWVANKWIHEYGQEFRRPCSSSPED
B5: GTP-binding protein GEM (Homo sapiens), P55040 (parent)
chain: MTLNNVTMRQGTVGMQPQQQRWSIPADGRHLMVQKEPHQYSHRNRHSATPEDHCRRSWSSDSTDSVISSESGNTYYRVVLIGEQGVGKSTLANIFAGVHDSMDSDCEVLGEDTYERTLMVDGESATIILLDMWENKGENEWLHDHCMQVGDAYLIVYSITDRASFEKASELRIQLRRARQTEDIPIILVGNKSDLVRCREVSVSEGRACAVVFDCKFIETSAAVQHNVKELFEGIVRQVRLRRDSKEKNERRLAYQKRKESMPRKARRFWGKIVAKNNKNMAFKLKSKSCHDLSVL
B6: Four and a half LIM domains protein 2 (Homo sapiens), Q14192 (parent)
chain: MTERFDCHHCNESLFGKKYILREESPYCVVCFETLFANTCEECGKPIGCDCKDLSYKDRHWHEACFHCSQCRNSLVDKPFAAKEDQLLCTDCYSNEYSSKCQECKKTIMPGTRKMEYKGSSWHETCFICHRCQQPIGTKSFIPKDNQNFCVPCYEKQHAMQCVQCKKPITTGGVTYREQPWHKECFVCTACRKQLSGQRFTARDDFAYCLNCFCDLYAKKCAGCTNPISGLGGTKYISFEERQWHNDCFNCKKCSLSLVGRGFLTERDDILCPDCGKDI
partner: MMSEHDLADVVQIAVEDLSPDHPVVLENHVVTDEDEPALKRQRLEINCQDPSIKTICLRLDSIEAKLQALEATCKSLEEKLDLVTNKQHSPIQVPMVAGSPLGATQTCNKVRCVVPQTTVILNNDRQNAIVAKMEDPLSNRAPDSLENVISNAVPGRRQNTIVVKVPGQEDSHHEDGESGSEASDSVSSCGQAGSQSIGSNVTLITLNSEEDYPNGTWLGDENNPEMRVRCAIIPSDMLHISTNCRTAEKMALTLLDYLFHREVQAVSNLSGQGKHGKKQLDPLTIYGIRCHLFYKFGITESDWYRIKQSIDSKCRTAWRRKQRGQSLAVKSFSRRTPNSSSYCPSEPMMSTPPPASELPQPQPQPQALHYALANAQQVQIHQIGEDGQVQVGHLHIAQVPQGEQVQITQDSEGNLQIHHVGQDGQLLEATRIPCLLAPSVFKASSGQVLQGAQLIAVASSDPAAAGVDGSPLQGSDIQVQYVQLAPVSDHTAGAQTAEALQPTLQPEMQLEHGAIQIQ

Variants of: B1
Details: with pvr_human PVR
In the case of R74Q, the “effect of a mutation on the interaction” value is reported as “with no effect”. In the case of A115T, the “effect of a mutation on the interaction” value is reported as “with no effect”.

Variants of: B2
Details: with dtnb_human DTNB
R154G was tested, and the “effect of a mutation on the interaction” value was “disrupting interaction strength”.

Variants of: B3
Details: with npm2_human NPM2, Q86SE8
With E149K the “effect of a mutation on the interaction” value was “with no effect”.

Variants of: B4
Details: with maga2_human MAGEA2, P43356
maga2_human MAGEA2, P43356, sequence (P43356 whole entry): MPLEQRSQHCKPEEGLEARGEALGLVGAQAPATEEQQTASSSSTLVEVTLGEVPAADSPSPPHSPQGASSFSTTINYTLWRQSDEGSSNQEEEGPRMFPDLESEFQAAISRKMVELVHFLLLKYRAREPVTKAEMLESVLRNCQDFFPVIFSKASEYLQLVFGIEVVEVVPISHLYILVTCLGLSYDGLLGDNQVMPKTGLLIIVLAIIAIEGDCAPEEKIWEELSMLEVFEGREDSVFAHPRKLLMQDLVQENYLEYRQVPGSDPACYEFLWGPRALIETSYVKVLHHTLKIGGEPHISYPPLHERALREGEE
With S378L the “effect of a mutation on the interaction” value was “disrupting interaction strength”.

Variants of: B4
Details: with nutm1_human NUTM1, Q86Y26
nutm1_human NUTM1, Q86Y26, sequence (Q86Y26 whole entry): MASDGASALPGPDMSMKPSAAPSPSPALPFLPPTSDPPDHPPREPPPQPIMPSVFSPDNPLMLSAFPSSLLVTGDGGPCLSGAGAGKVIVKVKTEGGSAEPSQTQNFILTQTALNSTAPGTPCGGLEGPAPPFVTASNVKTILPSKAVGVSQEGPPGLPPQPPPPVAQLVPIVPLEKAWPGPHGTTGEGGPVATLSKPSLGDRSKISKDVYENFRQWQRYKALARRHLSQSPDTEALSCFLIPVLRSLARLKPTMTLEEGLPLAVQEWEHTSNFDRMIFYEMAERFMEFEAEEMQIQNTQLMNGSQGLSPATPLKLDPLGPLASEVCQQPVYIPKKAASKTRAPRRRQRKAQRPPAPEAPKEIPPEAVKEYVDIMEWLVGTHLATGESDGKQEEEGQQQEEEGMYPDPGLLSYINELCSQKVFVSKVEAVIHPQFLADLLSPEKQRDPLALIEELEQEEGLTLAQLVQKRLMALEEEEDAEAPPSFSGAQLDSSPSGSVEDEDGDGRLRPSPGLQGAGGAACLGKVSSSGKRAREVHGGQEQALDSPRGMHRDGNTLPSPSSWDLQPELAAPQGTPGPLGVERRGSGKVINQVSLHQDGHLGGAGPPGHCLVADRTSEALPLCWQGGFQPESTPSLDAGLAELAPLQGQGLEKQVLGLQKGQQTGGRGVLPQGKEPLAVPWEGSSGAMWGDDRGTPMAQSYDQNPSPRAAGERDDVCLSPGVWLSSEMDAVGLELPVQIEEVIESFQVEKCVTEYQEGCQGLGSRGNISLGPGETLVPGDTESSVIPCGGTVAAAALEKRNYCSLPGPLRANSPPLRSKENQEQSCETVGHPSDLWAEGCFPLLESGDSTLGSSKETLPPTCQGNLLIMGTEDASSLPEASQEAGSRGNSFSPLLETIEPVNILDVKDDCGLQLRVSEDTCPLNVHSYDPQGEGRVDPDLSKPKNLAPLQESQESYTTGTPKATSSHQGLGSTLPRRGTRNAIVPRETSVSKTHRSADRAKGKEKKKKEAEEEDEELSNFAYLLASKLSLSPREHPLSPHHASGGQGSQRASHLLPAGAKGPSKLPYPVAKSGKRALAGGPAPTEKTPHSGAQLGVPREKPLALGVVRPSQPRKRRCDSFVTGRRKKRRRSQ
For S378L, the “effect of a mutation on the interaction” value was “disrupting interaction strength”.

Variants of: B5
Details: with ldoc1_human LDOC1, O95751
ldoc1_human LDOC1, O95751, sequence (O95751 whole entry): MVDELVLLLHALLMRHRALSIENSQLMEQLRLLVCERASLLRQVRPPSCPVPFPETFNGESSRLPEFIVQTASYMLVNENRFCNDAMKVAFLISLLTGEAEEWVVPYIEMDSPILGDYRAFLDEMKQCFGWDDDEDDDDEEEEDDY
R43G was tested, and the “effect of a mutation on the interaction” value was “with no effect”.

Variants of: B5
Details: with tri23_human TRIM23, P36406
tri23_human TRIM23, P36406, sequence (P36406 whole entry): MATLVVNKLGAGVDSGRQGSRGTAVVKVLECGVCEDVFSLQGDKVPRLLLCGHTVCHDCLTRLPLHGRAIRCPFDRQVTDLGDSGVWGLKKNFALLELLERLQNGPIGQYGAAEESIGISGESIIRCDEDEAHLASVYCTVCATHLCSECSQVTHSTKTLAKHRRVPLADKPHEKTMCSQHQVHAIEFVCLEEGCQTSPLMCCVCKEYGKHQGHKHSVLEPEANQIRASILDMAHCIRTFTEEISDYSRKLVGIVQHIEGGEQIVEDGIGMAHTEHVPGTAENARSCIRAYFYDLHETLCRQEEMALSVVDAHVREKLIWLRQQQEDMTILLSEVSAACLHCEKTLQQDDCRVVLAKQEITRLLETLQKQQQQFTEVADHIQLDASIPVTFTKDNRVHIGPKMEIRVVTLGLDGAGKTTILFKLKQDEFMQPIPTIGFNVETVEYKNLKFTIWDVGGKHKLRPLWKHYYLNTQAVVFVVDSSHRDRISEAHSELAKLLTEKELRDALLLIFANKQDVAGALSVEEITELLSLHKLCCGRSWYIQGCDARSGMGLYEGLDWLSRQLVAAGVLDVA
For R43G, the “effect of a mutation on the interaction” value was “with no effect”.

Variants of: B5
Details: with nemo_human IKBKG
With R43G the “effect of a mutation on the interaction” value was “with no effect”.

Variants of: B5
Details: with mtus2_human MTUS2, Q5JR59
mtus2_human MTUS2, Q5JR59, sequence (Q5JR59 whole entry): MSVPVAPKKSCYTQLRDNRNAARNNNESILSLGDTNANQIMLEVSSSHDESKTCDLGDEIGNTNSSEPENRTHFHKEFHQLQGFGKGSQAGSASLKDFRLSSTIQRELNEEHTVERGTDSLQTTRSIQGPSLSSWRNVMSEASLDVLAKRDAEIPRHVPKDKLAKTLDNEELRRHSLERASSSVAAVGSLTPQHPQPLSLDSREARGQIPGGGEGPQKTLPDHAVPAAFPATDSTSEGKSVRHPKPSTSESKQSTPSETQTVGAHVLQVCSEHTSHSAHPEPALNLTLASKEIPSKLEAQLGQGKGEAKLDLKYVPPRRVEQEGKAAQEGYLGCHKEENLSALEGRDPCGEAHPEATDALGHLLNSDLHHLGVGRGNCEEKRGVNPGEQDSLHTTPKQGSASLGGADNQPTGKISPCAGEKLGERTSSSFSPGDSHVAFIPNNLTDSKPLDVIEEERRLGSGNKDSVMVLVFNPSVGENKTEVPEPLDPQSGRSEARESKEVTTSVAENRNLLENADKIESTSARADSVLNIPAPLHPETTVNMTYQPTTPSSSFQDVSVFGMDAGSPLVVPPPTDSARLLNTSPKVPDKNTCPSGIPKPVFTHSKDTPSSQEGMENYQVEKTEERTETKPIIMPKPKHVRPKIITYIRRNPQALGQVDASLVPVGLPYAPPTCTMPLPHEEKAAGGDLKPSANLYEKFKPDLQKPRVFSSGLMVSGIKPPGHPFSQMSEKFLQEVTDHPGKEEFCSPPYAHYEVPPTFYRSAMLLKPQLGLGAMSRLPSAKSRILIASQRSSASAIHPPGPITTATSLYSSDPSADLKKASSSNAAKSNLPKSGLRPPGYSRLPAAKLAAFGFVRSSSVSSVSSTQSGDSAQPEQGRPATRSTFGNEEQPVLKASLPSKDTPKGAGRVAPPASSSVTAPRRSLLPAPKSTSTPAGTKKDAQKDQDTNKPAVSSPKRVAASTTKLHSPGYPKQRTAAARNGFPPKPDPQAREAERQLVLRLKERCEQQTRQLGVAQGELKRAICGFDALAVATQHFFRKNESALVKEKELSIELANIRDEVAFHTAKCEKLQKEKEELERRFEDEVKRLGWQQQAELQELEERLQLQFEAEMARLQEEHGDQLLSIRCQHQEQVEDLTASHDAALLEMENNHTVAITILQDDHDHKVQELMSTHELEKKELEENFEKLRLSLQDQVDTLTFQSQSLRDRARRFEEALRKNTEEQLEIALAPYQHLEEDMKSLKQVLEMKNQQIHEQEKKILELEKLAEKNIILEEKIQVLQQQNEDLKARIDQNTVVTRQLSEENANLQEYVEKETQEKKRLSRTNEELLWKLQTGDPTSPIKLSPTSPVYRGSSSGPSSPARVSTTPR
For R43G, the “effect of a mutation on the interaction” value was “with no effect”.

Variants of: B5
Details: with pdli7_human PDLIM7, Q9NR12
pdli7_human PDLIM7, Q9NR12, sequence (Q9NR12 whole entry): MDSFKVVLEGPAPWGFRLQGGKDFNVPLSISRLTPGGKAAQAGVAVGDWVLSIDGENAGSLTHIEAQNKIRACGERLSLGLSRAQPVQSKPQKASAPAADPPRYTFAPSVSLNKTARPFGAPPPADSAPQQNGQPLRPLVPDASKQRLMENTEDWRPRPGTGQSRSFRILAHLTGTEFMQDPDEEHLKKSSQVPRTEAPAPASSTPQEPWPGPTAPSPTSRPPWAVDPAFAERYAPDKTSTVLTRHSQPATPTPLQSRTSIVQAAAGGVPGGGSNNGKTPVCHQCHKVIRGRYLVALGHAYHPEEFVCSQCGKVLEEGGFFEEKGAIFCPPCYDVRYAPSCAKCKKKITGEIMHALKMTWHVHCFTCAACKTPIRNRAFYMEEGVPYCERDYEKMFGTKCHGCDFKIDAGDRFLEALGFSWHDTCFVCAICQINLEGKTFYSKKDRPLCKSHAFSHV
For R43G, the “effect of a mutation on the interaction” value was “with no effect”.

Variants of: B6
Details: with banp_human BANP
R177Q was tested, and the “effect of a mutation on the interaction” value was “with no effect”.
